Laboratory results as given in publication PMC11041675.

Columns and labels:
Assay in all cases: EMSA
[1] = biological target: nsp7 (SARS-CoV-2, UniProt P0DTD1 3860-3942)
[2] = biological target: nsp7;nsp8 (SARS-CoV-2;SARS-CoV-2, UniProt P0DTD1;P0DTD1 3860-3942;3943-4140, |)
[3] = biological target: nsp8 (SARS-CoV-2, UniProt P0DTD1 3943-4140)

| Binder | binding result [1] | Kd [2] | binding result [3] |
| --- | --- | --- | --- |
| PKP4 (structured_RNA) RNA: GGGCUUGUGCAGAAUGAAUUCUCGUAACUACAUAGCACAAGUAGAUGUAGUUAACUUUAAUCUCACAGCAAUGUGAUUUUAAUAGCUUCUUAGGAGAAU | no binding | 2.6 µM | binds |
| rd85 (structured_RNA) RNA: GGGAAUAUACUAAUAUUGGUUGAGUUGUCCAAGCUCUAAUUGUGUCCUUUAGCUGUACGGAUUAUAAAAGUAAUAGGGAUGUGUU | – | 3.7 µM | – |
| PK (structured_RNA) RNA: GGGUCUUGUGCAGAAUGAAUUCUCGUAACUACAUAGCACAAGUAGAUGUAGUUA | no binding | 5.3 µM | binds |
| GGAUUCUCGUAACUACAUAGCACAAGUAGAUGUAGUUACUUAGGAGAAU (structured_RNA) [SL] | no binding | 5.7 µM | binds |
| SLP4 (structured_RNA) RNA: GGGAUUCUCGUAACUACAUAGCACAAGUAGAUGUAGUUAACUUUAAUCUCACAGCAAUGUGAUUUUAAUAGCUUCUUAGGAGAAU | no binding | 2.4 µM | binds |
